{"source": "patent US20110172153A1", "biological_target": "PTH receptor, R^0 and RG conformations (species not stated at the figure legends) (Homo sapiens (Human)) (UniProt Q03431)", "assay": "R0 binding affinity in vitro, table inset of FIG. 18; reference [E19],Mc-hPTH(1-34)OH", "note": "Ends that are not written are not given here.", "data": [{"binder": "AVAEIQLMHQRAKWLNSMERVEALRKKLQDVHNF-OH", "note": "[[A^23,E^19],Mc-hPTH(1-34)OH]", "values": [{"measurement": "fold reduction of binding affinity for R^0 against [E^19 Mc]PTH(1-34)", "value": 10, "unit": "fold"}]}]}
